Source: patent publication CN103012589A (SHANGHAI SERUM BIO TECHNOLOGY CO LTD; INST BIOENGINEERING …, dated 2013)

Target: T1, 重组人VEGF165 (human, UniProt P15692-4 27-191)
T1 construct: also called VEGF双体; 人血管内皮细胞生长因子
T1 sequence: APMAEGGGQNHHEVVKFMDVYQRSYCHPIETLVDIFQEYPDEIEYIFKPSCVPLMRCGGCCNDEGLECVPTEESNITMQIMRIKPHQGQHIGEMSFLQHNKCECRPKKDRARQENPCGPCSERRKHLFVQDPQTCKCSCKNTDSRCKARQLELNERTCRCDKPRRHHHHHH
Assay: Biacore SPR, VEGF coupled on CM5 chip, whole antibody as analyte, 1:1 Langmuir fit

B1: VA6L-K90D_D92V (antibody, V domains shown)
VH: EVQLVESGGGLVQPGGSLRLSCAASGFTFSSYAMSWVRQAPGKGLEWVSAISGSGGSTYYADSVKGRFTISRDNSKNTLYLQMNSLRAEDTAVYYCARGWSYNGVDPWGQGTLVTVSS
VL: SYELTQPPSVSVAPGQTARITCSGDALGDKYASWYQQKPGQAPVLVIYEDSKRPSGIPERFSGSNSGNTATLTISGTQAEDEADYYCQVDSVNYGYVFGGGTKLTVLG
notes: also called VA6-3
Q: How did the Kd turn out when B1 was run?
A: The Kd was 5.27 nM.

Q: And the koff?
A: Its koff is 0.00149 s⁻¹.

Q: What about the kon of the same binder?
A: The kon was 283000 M⁻¹ s⁻¹.

B2: VA6-57 (antibody, IgG1, V domains shown)
VH: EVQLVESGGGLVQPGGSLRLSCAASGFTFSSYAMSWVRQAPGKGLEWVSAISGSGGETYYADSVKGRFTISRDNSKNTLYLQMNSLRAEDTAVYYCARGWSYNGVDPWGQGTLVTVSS
VL: SYELTQPPSVSVAPGQTARITCSGDALGDKYASWYQQKPGQAPVLVIYEDSKRPSGIPERFSGSNSGNTATLTISGTQAEDEADYYCQVDSVNYGYVFGGGTKLTVLG
notes: Whole antibody (IgG1, lambda); built further on VA6-3
Q: B2 was tested. Which Kd did it give?
A: The Kd was 1.8 nM.

Q: What about the koff of the same binder?
A: Its koff is 0.00096 s⁻¹.

Q: What about the kon of the same binder?
A: The kon was 550000 M⁻¹ s⁻¹.

B3: VA6全抗体 (antibody, V domains shown)
VH: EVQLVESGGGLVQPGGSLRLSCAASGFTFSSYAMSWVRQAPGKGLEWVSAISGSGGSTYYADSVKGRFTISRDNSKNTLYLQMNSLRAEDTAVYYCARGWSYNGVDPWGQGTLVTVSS
VL: SYELTQPPSVSVAPGQTARITCSGDALGDKYASWYQQKPGQAPVLVIYEDSKRPSGIPERFSGSNSGNTATLTISGTQAEDEADYYCQVKSDNYGYVFGGGTKLTVLG
notes: Whole antibody from vectors pABL (lambda) and pABG1 (human IgG1), HEK293T transient expression
Q: What does the source list for B3?
A: Kd: 12.7 nM; koff: 0.000445 s⁻¹; kon: 35000 M⁻¹ s⁻¹
